Results taken from the Immune Epitope Database (IEDB).
Blank lines part the entries; values can stand above or below the sequence they belong to.

Legend:
HLA-A*02:01 [1] = test: IEDB peptide-MHC binding, purified MHC/competitive/fluorescence; ≥ and ≤ were set here for values at or beyond the usual limits of such assays
HLA-A*30:01 = test: IEDB peptide-MHC binding, purified MHC/competitive/radioactivity; filed as Kd, often an IC50 or EC50 that approximates it; ≥ and ≤ were set here for values at or beyond the usual limits of such assays
HLA-B*27:05 = test: IEDB peptide-MHC binding, purified MHC/direct/fluorescence; filed as Kd, often an IC50 or EC50 that approximates it; ≥ and ≤ were set here for values at or beyond the usual limits of such assays
HLA-A*30:02 = test: IEDB peptide-MHC binding, purified MHC/competitive/radioactivity; filed as Kd, often an IC50 or EC50 that approximates it; ≥ and ≤ were set here for values at or beyond the usual limits of such assays; settings: source organism: Dengue virus 2 Jamaica/1409/1983
HLA-A*32:01 = test: as above
HLA-A*03:01 = test: IEDB peptide-MHC binding, purified MHC/direct/fluorescence; filed as Kd, often an IC50 or EC50 that approximates it; ≥ and ≤ were set here for values at or beyond the usual limits of such assays
HLA-A*11:01 = test: as above; settings: source organism: Orthohantavirus hantanense
HLA-A*31:01 = test: as above; settings: source organism: Orthohantavirus hantanense
HLA-B*07:02 = test: as above; settings: source organism: Orthohantavirus hantanense
HLA-B*15:01 = test: as above; settings: source organism: Orthohantavirus hantanense
HLA-A*01:01 = test: as above
HLA-A*02:01 [2] = test: IEDB peptide-MHC binding, purified MHC/competitive/fluorescence; filed as Kd, often an IC50 or EC50 that approximates it; ≥ and ≤ were set here for values at or beyond the usual limits of such assays; settings: source organism: Entamoeba histolytica
HLA-A*02:02 = test: IEDB peptide-MHC binding, purified MHC/competitive/radioactivity; filed as Kd, often an IC50 or EC50 that approximates it; ≥ and ≤ were set here for values at or beyond the usual limits of such assays
HLA-A*02:03 = test: as above
HLA-A*02:06 = test: as above
HLA-A*26:01 = test: as above; settings: source organism: Dengue virus 3 Martinique/1243/1999
HLA-A*02:01 [3] = test: IEDB peptide-MHC binding, purified MHC/direct/fluorescence; filed as Kd, often an IC50 or EC50 that approximates it; ≥ and ≤ were set here for values at or beyond the usual limits of such assays; settings: source organism: Escherichia coli
HLA-A*69:01 = test: as above; settings: source organism: Escherichia coli
HLA-B*40:01 = test: as above; settings: source organism: Mycobacterium tuberculosis variant bovis
HLA-B*58:01 = test: as above; settings: source organism: Human immunodeficiency virus type 1 (isolate YU2)
[4] = source organism: Vaccinia virus WR
[5] = source organism: Dengue virus 1 Brazil/97-11/1997
[6] = source organism: Orthohantavirus hantanense
[7] = source organism: Mammarenavirus brazilense
[8] = source organism: Human immunodeficiency virus type 1 (isolate YU2)

Sequence: AKLTEAITA
- IC50 (HLA-A*02:01 [1]; source organism: Zaire ebolavirus): 28600 nM

Sequence: RFKKESSLA
- Kd (HLA-A*30:01; [4]): 0.305 nM

Sequence: AFGLYKSIN
- IC50 (HLA-A*02:01 [1]; [4]): ≥ 245000 nM

Sequence: GRLITVNPIV
- Kd (HLA-A*30:01; source organism: Dengue virus 2 Jamaica/1409/1983): ≥ 20400 nM

Sequence: RRLVKVLNN
- Kd (HLA-B*27:05; source organism: Mycobacterium avium 104): 4370 nM

Sequence: KNENDQYIY
- Kd (HLA-A*30:02): 0.15 nM

Sequence: EDMLSVWNRV
- Kd (HLA-A*32:01; [5]): ≥ 34400 nM

Sequence: HINALEYII
- Kd (HLA-A*32:01; [4]): 631 nM

Sequence: RLKPVGSAY
- Kd (HLA-A*03:01; [6]): 214 nM
- Kd (HLA-A*11:01): 3630 nM
- Kd (HLA-A*31:01): 401 nM
- Kd (HLA-B*07:02): 676 nM
- Kd (HLA-B*15:01): 357 nM
- Kd (HLA-B*27:05; [6]): 8420 nM

Sequence: RFRKKKKVY
- Kd (HLA-A*01:01; source organism: Listeria monocytogenes): ≥ 20000 nM

Sequence: DLKPENILL
- Kd (HLA-A*02:01 [2]): ≥ 20000 nM

Sequence: YNYSLSAAV
- Kd (HLA-A*02:02; [7]): 78.9 nM
- Kd (HLA-A*02:03; [7]): 67.2 nM
- Kd (HLA-A*02:06; [7]): 88.4 nM

Sequence: ETENILTVL
- Kd (HLA-A*26:01): 2940 nM

Sequence: KTDGAVTSPL
- Kd (HLA-A*02:02; [4]): 61.9 nM
- Kd (HLA-A*02:03; [4]): 400 nM
- Kd (HLA-A*02:06; [4]): 347 nM

Sequence: MLVCGDDLV
- IC50 (HLA-A*02:01 [1]; source organism: Hepatitis C virus genotype 1): 5000 nM

- Kd (HLA-A*02:01 [3]): 418 nM
- Kd (HLA-A*69:01): ≥ 20000 nM
Sequence: RILAYGPCL

Sequence: AEALKGMPIR
- Kd (HLA-A*30:01; [5]): 1260 nM

Sequence: FEGIAVLGL
- Kd (HLA-B*40:01): 67.6 nM

Sequence: YIWIKNLET
- Kd (HLA-A*02:02; [4]): 12600 nM
- Kd (HLA-A*02:03; [4]): 1180 nM
- Kd (HLA-A*02:06; [4]): 347 nM

Sequence: EILRNYLRL
- Kd (HLA-A*02:02; [4]): 14000 nM
- Kd (HLA-A*02:03; [4]): 2090 nM
- Kd (HLA-A*02:06; [4]): 13000 nM

Sequence: RTNNAELDF
- Kd (HLA-A*32:01; [4]): 131 nM

Sequence: RIKQIINMW
- Kd (HLA-A*01:01; [8]): 5560 nM
- Kd (HLA-A*03:01; [8]): 3660 nM
- Kd (HLA-B*58:01): 884 nM

Sequence: KLKIALAKG
- Kd (HLA-A*30:01; [4]): 479 nM
